Here are results for 15 molecules from patent EP4671273A1 (Anaveon AG, dated 2025).

Where a chain is given by its changes, count along the chain named. Read-outs that look alike come from different tables or passages of the source.

For test [1], the target named is T1, recombinant IL-21Ra-Fc (AcroBiosystems) (human, UniProt Q9HBE5 20-232).
T1 construct: bought; also called rIL-21Rα; rIL-21Ra-Fc; not shown: Fc of the bought reagent, not described
Kind of test: SPR, not shown. A general note: SPR reads the build-up and loss of mass on a sensor chip optically.

The target of test [2] is recombinant human IL-21 (rhIL-21) (human, UniProt Q9HBE4 30-162, limits assumed). The test is described as follows: cell-based or functional assay.
For test [3], the target named is T2, human IL-21 receptor (IL-21R) on cells (human, UniProt Q9HBE5 20-538; P31785 23-369). Kind of test: cell-based or functional assay.
T2 sequence (Q9HBE5 20-538, chain 1 of 2): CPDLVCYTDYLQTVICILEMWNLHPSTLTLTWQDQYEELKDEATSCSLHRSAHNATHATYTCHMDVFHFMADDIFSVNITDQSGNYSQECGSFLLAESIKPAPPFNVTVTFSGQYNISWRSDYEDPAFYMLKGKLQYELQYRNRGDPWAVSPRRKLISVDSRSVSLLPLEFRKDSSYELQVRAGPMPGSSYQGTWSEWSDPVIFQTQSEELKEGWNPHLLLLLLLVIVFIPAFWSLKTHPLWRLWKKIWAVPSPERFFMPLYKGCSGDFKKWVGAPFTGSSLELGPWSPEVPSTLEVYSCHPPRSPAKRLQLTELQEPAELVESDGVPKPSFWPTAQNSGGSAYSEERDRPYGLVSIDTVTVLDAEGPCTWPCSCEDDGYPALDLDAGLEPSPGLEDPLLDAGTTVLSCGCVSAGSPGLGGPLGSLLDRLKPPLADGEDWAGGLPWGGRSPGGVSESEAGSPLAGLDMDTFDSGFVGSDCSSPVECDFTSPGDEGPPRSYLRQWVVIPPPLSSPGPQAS
T2 sequence (P31785 23-369, chain 2 of 2): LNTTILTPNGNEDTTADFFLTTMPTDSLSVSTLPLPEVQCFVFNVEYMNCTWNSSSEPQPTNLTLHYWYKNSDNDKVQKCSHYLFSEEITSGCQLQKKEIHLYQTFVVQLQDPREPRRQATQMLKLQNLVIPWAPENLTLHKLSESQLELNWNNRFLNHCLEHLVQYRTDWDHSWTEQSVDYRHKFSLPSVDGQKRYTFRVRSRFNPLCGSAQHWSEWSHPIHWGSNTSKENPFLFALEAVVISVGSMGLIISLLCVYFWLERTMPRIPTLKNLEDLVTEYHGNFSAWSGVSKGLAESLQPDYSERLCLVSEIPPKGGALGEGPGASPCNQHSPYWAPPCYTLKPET
The target in test [4] is T2, human IL-21 receptor (IL-21R) on cells. The test is described as follows: cell-based or functional assay. This is another data set of the same source.
Test [5] shares this target. Kind of test: cell-based or functional assay. This is another data set of the same source.
Test [6] has the same target. The test is described as follows: cell-based or functional assay. The source holds these as a separate data set.
For test [7] the target is unchanged. The test is described as follows: cell-based or functional assay. The source holds these as a separate data set.

T1 sequence (Q9HBE5 20-232): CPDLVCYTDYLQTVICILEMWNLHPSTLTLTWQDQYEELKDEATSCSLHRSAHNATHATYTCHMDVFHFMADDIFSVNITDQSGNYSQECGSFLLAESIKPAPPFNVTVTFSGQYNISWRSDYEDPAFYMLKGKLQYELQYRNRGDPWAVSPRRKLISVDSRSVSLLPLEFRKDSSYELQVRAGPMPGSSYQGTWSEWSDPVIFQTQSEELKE

B1: FYP014 (antibody, human IgG1, V domains shown)
VH: EVQLVESGGGLVKPGGSLRLSCAASGFIFSSYSMNWVRQAPGKGLEWVSSITSGSYYIHYADSVKGRFTISRDNAKNSLYLQMNSLRAEDTAVYYCVRERGWGYYGMDVWGQGTTVTVSS
VL: AIQLTQSPSSLSASVGDRVTITCRASQDIDSALAWYQQKPGKAPKILIHDASSLESGVPSRFSGSGSGTDFTLTISSLQPEDFATYYCQQFNSYPYTFGQGTKLEIK
notes: human IgG1; also called EP3103813A1 clone 366.328.10.63
For the molecule B1, the binding result in test [1] was “binds”. In test [2], the “% pSTAT3+ Jurkat cells, 0.1 nM rhIL-21 + 0 nM antibody” value turned out to be 82.7%; the “% pSTAT3+ Jurkat cells, 0.1 nM rhIL-21 + 0.1012 nM antibody” value worked out at 59.4%; the “% pSTAT3+ Jurkat cells, 0.1 nM rhIL-21 + 0.1602 nM antibody” value was determined as 6.07%; the “% pSTAT3+ Jurkat cells, 0.1 nM rhIL-21 + 0.2536 nM antibody” value was found to be 4.93%. In test [2], the “% pSTAT3+ Jurkat cells, 0.1 nM rhIL-21 + 0.4015 nM antibody” value came to 4.39%; the “% pSTAT3+ Jurkat cells, 0.1 nM rhIL-21 + 0.6355 nM antibody” value came to 5.32%; the “% pSTAT3+ Jurkat cells, 0.1 nM rhIL-21 + 1.006 nM antibody” value was 5.9%; the “% pSTAT3+ Jurkat cells, 0.1 nM rhIL-21 + 1.5925 nM antibody” value was 4.78%. In test [2], the “% pSTAT3+ Jurkat cells, 0.1 nM rhIL-21 + 2.5209 nM antibody” value is 5.16%; the “% pSTAT3+ Jurkat cells, 0.1 nM rhIL-21 + 3.9906 nM antibody” value turned out to be 4.64%; the “% pSTAT3+ Jurkat cells, 0.1 nM rhIL-21 + 6.3171 nM antibody” value is 3.99%; the “% pSTAT3+ Jurkat cells, 0.1 nM rhIL-21 + 10 nM antibody” value is 3.83%.

B2: PAP722 (bispecific antibody, human IgG1, kappa, lambda, L234A L235A)
heavy 1: EVQLLESGGGLVQPGGSLRLSCAASGFTFSINAMTWVRQAPGKGLEWVSTISGSGFSTYYADSLKGRFTISRDNSKNTLYLQMNSLRAEDTAVYYCAKEVYGDYWGQGTLVTVSSASTKGPSVFPLAPSSKSTSGGTAALGCLVKDYFPEPVTVSWNSGALTSGVHTFPAVLQSSGLYSLSSVVTVPSSSLGTQTYICNVNHKPSNTKVDKRVEPKSCDKTHTCPPCPAPEAAGGPSVFLFPPKPKDTLMISRTPEVTCVVVDVSHEDPEVKFNWYVDGVEVHNAKTKPREEQYNSTYRVVSVLTVLHQDWLNGKEYKCKVSNKALAAPIEKTISKAKGQPREPQVCTLPPSREEMTKNQVSLSCAVKGFYPSDIAVEWESNGQPENNYKTTPPVLDSDGSFFLVSKLTVDKSRWQQGNVFSCSVMHEALHNHYTQKSLSLSPGK
light 1: not shown
heavy 2: QVQLQESGPGLVKPSETLSLTCTVSGGSISSDYWGWIRQPPGKGLEWIGYISSRGSTNYNPSLKRRVTISVDTSRNQFSLKLSSVTAADTAVYYCARSAGVADFDFWGQGTLVTVSSASTKGPSVFPLAPSSKSTSGGTAALGCLVKDYFPEPVTVSWNSGALTSGVHTFPAVLQSSGLYSLSSVVTVPSSSLGTQTYICNVNHKPSNTKVDKRVEPKSCDKTHTCPPCPAPEAAGGPSVFLFPPKPKDTLMISRTPEVTCVVVDVSHEDPEVKFNWYVDGVEVHNAKTKPREEQYNSTYRVVSVLTVLHQDWLNGKEYKCKVSNKALAAPIEKTISKAKGQPREPQVYTLPPCREEMTKNQVSLWCLVKGFYPSDIAVEWESNGQPENNYKTTPPVLDSDGSFFLYSKLTVDKSRWQQGNVFSCSVMHEALHNHYTQKSLSLSPGK
light 2: not shown
Turning to B2, in test [3], the “EC50B, pSTAT3+ Jurkat PD-1 cells, PD-1 blocked” value (“EC50B, pSTAT3+ Jurkat PD-1 cells” for short) was determined as 1.97 nM and the “EC50NB, pSTAT3+ Jurkat PD-1 cells” value is 19 pM. The molecule further returned a Δ in test [4] of 4.3.

B3: UNY098 (bispecific antibody, human IgG1, kappa, lambda, L234A L235A)
heavy 1: B2 heavy 1
light 1: not shown
heavy 2: B2 heavy 2 with S53Y, R65S, A102T, F106A
light 2: not shown
On to B3, for which, in test [5], the “EC50B, pSTAT3+ Jurkat PD-1 cells” value was 0.333 nM and the “EC50NB, pSTAT3+ Jurkat PD-1 cells” value came out at 7 pM.

B4: ULS916 (bispecific antibody, human IgG1, kappa, lambda, L234A L235A)
heavy 1: B2 heavy 1
light 1: not shown
heavy 2: B2 heavy 2 with S53Y, R65S, A102T, F106A
light 2: not shown
B4: in test [5], the “EC50B, pSTAT3+ Jurkat PD-1 cells” value came out at 0.873 nM and the “EC50NB, pSTAT3+ Jurkat PD-1 cells” value stood at 6 pM.

B5: VCG677 (bispecific antibody, human IgG1, kappa, lambda, L234A L235A)
heavy 1: B2 heavy 1
light 1: not shown
heavy 2: B2 heavy 2 with Y33F, A102T
light 2: not shown
Turning to B5, in test [6], the “EC50B, pSTAT3+ Jurkat PD-1 cells” value amounted to 2.3 nM and the “EC50NB, pSTAT3+ Jurkat PD-1 cells” value was 39 pM.

B6: ZNP367 (bispecific antibody, human IgG1, kappa, lambda, L234A L235A)
heavy 1: B2 heavy 1
light 1: not shown
heavy 2: B2 heavy 2 with Y33F, A102T
light 2: not shown
With B6, in test [6], the “EC50B, pSTAT3+ Jurkat PD-1 cells” value turned out to be 0.97 nM and the “EC50NB, pSTAT3+ Jurkat PD-1 cells” value is 36 pM.

B7: YWW798 (bispecific antibody, human IgG1, kappa, lambda, L234A L235A)
heavy 1: B2 heavy 1
light 1: not shown
heavy 2: B2 heavy 2 with S53Y, R54S, R65S, A102T, F106A
light 2: not shown
B7: in test [5], the “EC50B, pSTAT3+ Jurkat PD-1 cells” value was 0.526 nM and the “EC50NB, pSTAT3+ Jurkat PD-1 cells” value is 4 pM. The same molecule registered a Δ in test [4] of 3.45.

B8: GOP758 (bispecific antibody, human IgG1, kappa, lambda, L234A L235A)
heavy 1: B2 heavy 1
light 1: not shown
heavy 2: B2 heavy 2 with Y33F, A102T
light 2: DIQMTQSPSSVSASVGDRVTITCRASQGISSWLAWYQHKPGKAPKLLIYVASSLQGGGGSQGQDRHMIRMRQLIDIVDQLKNYVNDLVPEFLPAPEDVETNCEWSAFSCFQKAQLKSANTGNNERIINVSIKKLKRKPPSTNAGRRQKHRLTCPSCDSYEKKPPKEFLERFKSLLQKMIHQHLSSRTHGSEDSGGGGSSGVPSRFSGSGSGTDFTLTISSLQPEDFATYYCQQANSFPLTFGGGTKVEIKRTVAAPSVFIFPPSDEQLKSGTASVVCLLNNFYPREAKVQWKVDNALQSGNSQESVTEQDSKDSTYSLSSTLTLSKADYEKHKVYACEVTHQGLSSPVTKSFNRGEC
On to B8, for which, in test [6], the “EC50B, pSTAT3+ Jurkat PD-1 cells” value is 0.51 nM and the “EC50NB, pSTAT3+ Jurkat PD-1 cells” value stood at 0.227 nM.

B9: EXX354 (bispecific antibody, human IgG1, kappa, lambda, L234A L235A)
heavy 1: B2 heavy 1
light 1: not shown
heavy 2: not shown
light 2: DIQMTQSPSSVSASVGDRVTITCRASQGISSWLAWYQHKPGKAPKLLIYVASSLQSGVPSRFSGSGSGTDFTLTISSLQPEDFATYYCQQANSAPLTFGGGTKVEIKRTVAAPSVFIFPPSDEQLKSGTASVVCLLNNFYPREAKVQWKVDNALQSGNSQESVTEQDSKDSTYSLSSTLTLSKADYEKHKVYACEVTHQGLSSPVTKSFNRGEC
Consider B9, for which, in test [7], the “EC50B, pSTAT3+ Jurkat PD-1 cells” value amounted to 0.28 nM and the “EC50NB, pSTAT3+ Jurkat PD-1 cells” value was found to be 39 pM.

B10: JAK529 (bispecific antibody, human IgG1, kappa, lambda, L234A L235A)
heavy 1: B2 heavy 1
light 1: not shown
heavy 2: not shown
light 2: B9 light 2
In the case of B10, in test [7], the “EC50B, pSTAT3+ Jurkat PD-1 cells” value was 0.44 nM and the “EC50NB, pSTAT3+ Jurkat PD-1 cells” value came to 27 pM.

B11: VYL308 (bispecific antibody, human IgG1, kappa, lambda, L234A L235A)
heavy 1: B2 heavy 1
light 1: not shown
heavy 2: B2 heavy 2 with S53Y, R65S, A102T, F106A
light 2: not shown
With B11, in test [5], the “EC50B, pSTAT3+ Jurkat PD-1 cells” value was found to be 56 pM and the “EC50NB, pSTAT3+ Jurkat PD-1 cells” value was determined as 0.7 pM.

B12: TVU155 (bispecific antibody, human IgG1, kappa, lambda, L234A L235A)
heavy 1: B2 heavy 1
light 1: not shown
heavy 2: B2 heavy 2 with S53Y, R65S, A102T, F106A
light 2: not shown
As for B12, in test [5], the “EC50B, pSTAT3+ Jurkat PD-1 cells” value came out at 0.951 nM and the “EC50NB, pSTAT3+ Jurkat PD-1 cells” value worked out at 4 pM. This molecule also showed a Δ in test [4] of 2.96.

B13: YCV364 (bispecific antibody, human IgG1, kappa, lambda, L234A L235A)
heavy 1: B2 heavy 1
light 1: not shown
heavy 2: B2 heavy 2 with Y33F
light 2: not shown
In the case of B13, in test [3], the “EC50B, pSTAT3+ Jurkat PD-1 cells” value worked out at 1.33 nM and the “EC50NB, pSTAT3+ Jurkat PD-1 cells” value came out at 9 pM. In test [4], this molecule yielded a Δ of 4.21.

B14: WBL338 (bispecific antibody)
heavy 1: B2 heavy 1
light 1: not shown
heavy 2: B2 heavy 2 with S53Y, R65S, A102T, F106W
light 2: not shown
Take B14: in test [5], the “EC50B, pSTAT3+ Jurkat PD-1 cells” value came out at 1.52 nM and the “EC50NB, pSTAT3+ Jurkat PD-1 cells” value worked out at 3 pM. In addition, the Δ in test [4] is 8.18.

B15: DMT806 (bispecific antibody, human IgG1, kappa, lambda, L234A L235A)
heavy 1: B2 heavy 1
light 1: not shown
heavy 2: not shown
light 2: B9 light 2 with A94F
Regarding B15, in test [7], the “EC50B, pSTAT3+ Jurkat PD-1 cells” value amounted to 12.4 nM and the “EC50NB, pSTAT3+ Jurkat PD-1 cells” value amounted to 0.17 nM. The molecule also displayed a Δ in test [4] of 2.79.
